What was measured:
Experiment in all cases: GST pull-down, LC-MS/MS
[1] = biological target: Gnb3_IPI:IPI00116938.1 (mouse) (UniProt Q61011)
[2] = biological target: Nubpl_IPI:IPI00317709.1 (mouse) (UniProt Q9CWD8)
[3] = biological target: Mrps33_IPI:IPI00135214.1 (mouse) (UniProt Q9D2R8)
[4] = biological target: Tim50 (endogenous, mouse) (mouse) (UniProt Q9D880)
[5] = biological target: Iscu_IPI:IPI00110578.1 (mouse) (UniProt Q9D7P6)
[6] = biological target: Oxa1l_IPI:IPI00308001.1 (mouse) (UniProt Q8BGA9)
[7] = biological target: Cisd1_IPI:IPI00128346.1 (mouse) (UniProt Q91WS0)
[8] = biological target: Ywhaq_IPI:IPI00408378.4 (mouse) (UniProt P68254)
[9] = biological target: Cplx1_IPI:IPI00132278.1 (mouse) (UniProt P63040)
[10] = biological target: Tpi1_IPI:IPI00467833.6 (mouse) (UniProt P17751)
[11] = biological target: Rab5b_IPI:IPI00116563.2 (mouse) (UniProt P61021)
[12] = biological target: LOC100044454_IPI:IPI00135284.1 (mouse)
[13] = biological target: Hint2_IPI:IPI00133034.3 (mouse) (UniProt Q9D0S9)
[14] = biological target: Ppdpf_IPI:IPI00133078.1 (mouse) (UniProt Q9CR37)
[15] = biological target: Gnao1_IPI:IPI00115546.4 (mouse) (UniProt P18872)
[16] = biological target: Sccpdh_IPI:IPI00153266.1 (mouse) (UniProt Q8R127)
[17] = biological target: Pnkd_IPI:IPI00187405.4 (mouse) (UniProt Q69ZP3)
[18] = biological target: Atp1a1_IPI:IPI00311682.5 (mouse) (UniProt Q8VDN2)
[19] = biological target: Cyc1_IPI:IPI00132728.2 (mouse) (UniProt Q9D0M3)
[20] = biological target: Gm6180_IPI:IPI00409405.2 (mouse)

Sequence of Nubpl_IPI:IPI00317709.1 (mouse) (Q9CWD8 39-319 limits assumed): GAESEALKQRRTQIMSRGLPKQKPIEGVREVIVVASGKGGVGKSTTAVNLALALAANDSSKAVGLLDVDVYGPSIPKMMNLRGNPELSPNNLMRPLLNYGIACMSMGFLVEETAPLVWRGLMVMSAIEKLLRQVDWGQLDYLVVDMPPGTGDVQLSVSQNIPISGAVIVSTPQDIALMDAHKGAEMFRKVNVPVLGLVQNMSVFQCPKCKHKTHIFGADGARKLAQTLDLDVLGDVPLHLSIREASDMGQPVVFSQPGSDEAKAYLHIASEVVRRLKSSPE
Sequence of Ywhaq_IPI:IPI00408378.4 (mouse) (P68254 whole entry): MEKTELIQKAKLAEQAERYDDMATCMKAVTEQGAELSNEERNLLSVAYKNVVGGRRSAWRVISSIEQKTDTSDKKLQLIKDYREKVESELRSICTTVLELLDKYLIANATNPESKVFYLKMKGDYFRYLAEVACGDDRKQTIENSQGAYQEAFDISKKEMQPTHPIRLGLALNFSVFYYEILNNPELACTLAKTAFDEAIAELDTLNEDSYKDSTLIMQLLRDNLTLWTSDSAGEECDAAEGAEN
Sequence of Cisd1_IPI:IPI00128346.1 (mouse) (Q91WS0 whole entry): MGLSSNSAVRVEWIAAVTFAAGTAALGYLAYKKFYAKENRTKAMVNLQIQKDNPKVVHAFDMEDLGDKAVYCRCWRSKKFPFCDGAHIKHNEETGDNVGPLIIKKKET
Sequence of Tim50 (endogenous, mouse) (mouse) (Q9D880 22-353 limits assumed): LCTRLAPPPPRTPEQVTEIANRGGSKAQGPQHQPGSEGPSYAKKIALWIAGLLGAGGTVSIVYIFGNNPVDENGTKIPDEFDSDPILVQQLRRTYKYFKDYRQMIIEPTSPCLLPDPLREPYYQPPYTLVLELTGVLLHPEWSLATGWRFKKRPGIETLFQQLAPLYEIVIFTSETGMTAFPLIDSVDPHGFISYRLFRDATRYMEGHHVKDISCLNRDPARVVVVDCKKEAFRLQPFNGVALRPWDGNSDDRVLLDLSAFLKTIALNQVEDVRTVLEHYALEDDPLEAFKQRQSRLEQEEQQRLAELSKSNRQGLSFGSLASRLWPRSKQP
Sequence of Pnkd_IPI:IPI00187405.4 (mouse) (Q69ZP3 whole entry): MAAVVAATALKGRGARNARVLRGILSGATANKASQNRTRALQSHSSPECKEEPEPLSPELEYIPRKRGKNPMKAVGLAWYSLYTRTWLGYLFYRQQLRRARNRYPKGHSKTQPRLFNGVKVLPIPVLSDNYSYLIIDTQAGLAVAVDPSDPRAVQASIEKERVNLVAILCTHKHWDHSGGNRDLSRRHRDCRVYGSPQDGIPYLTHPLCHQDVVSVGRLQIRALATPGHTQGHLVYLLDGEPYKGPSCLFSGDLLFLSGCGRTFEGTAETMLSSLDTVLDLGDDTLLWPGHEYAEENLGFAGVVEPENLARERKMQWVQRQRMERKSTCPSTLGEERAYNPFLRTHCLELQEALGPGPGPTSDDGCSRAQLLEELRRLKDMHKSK
Sequence of Cyc1_IPI:IPI00132728.2 (mouse) (Q9D0M3 85-325 limits assumed): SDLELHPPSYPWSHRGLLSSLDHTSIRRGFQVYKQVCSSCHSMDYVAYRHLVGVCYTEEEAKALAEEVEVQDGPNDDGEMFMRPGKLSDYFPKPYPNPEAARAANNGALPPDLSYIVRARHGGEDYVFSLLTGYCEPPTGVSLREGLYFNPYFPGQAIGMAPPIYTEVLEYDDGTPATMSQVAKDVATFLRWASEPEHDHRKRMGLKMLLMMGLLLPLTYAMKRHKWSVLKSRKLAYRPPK
Sequence of Tpi1_IPI:IPI00467833.6 (mouse) (P17751 2-249 limits assumed): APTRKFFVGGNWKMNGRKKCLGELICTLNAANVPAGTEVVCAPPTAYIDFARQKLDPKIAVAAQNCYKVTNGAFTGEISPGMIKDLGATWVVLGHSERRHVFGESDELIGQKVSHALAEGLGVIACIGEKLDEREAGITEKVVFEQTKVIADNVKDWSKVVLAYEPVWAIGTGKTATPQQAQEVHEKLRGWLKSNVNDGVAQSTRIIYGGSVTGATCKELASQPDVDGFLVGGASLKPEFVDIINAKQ
Sequence of Rab5b_IPI:IPI00116563.2 (mouse) (P61021 2-215 limits assumed): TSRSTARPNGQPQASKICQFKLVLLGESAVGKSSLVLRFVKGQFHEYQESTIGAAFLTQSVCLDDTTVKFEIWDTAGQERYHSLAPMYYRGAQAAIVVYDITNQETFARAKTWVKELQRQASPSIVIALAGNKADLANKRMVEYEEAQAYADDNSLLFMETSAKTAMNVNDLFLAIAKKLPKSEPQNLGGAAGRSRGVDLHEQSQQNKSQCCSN
Sequence of Cplx1_IPI:IPI00132278.1 (mouse) (P63040 whole entry): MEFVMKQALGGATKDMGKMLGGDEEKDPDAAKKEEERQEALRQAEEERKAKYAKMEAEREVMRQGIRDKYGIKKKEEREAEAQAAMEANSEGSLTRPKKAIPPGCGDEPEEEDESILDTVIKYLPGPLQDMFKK
Sequence of GST-Httex1-97Q (P08515 1-218, tags or fused parts left off): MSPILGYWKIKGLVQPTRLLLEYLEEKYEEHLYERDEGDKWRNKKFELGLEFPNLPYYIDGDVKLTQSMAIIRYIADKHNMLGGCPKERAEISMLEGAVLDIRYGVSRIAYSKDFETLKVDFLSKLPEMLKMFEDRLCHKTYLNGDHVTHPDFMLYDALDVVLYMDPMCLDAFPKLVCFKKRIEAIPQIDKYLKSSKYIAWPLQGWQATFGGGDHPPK
Sequence of Oxa1l_IPI:IPI00308001.1 (mouse) (Q8BGA9 whole entry): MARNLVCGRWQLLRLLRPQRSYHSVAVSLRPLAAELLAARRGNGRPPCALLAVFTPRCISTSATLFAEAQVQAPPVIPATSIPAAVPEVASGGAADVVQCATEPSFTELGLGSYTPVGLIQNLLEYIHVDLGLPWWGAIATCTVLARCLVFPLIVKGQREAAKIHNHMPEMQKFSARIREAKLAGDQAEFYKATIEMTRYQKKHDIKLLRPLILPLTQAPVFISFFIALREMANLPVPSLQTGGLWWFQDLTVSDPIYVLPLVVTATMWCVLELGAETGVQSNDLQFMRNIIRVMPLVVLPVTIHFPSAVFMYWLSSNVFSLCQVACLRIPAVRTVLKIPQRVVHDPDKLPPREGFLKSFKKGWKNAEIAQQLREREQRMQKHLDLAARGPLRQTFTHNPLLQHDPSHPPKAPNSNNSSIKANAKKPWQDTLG
Sequence of Hint2_IPI:IPI00133034.3 (mouse) (Q9D0S9 18-163 limits assumed): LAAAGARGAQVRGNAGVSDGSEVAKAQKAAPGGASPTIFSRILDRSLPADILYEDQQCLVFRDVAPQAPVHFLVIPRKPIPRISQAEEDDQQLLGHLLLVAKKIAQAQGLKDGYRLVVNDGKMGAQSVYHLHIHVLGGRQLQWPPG
Sequence of Gnb3_IPI:IPI00116938.1 (mouse) (Q61011 whole entry): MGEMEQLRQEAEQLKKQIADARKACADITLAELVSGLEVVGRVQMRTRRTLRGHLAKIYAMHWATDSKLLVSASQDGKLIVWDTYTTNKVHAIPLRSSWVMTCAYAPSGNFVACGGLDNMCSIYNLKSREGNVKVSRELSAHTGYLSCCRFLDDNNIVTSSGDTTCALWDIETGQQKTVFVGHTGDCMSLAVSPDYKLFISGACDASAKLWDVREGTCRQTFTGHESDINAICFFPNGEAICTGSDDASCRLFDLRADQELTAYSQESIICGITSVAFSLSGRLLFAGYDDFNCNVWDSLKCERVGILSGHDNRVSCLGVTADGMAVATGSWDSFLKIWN
Sequence of Ppdpf_IPI:IPI00133078.1 (mouse) (Q9CR37 whole entry): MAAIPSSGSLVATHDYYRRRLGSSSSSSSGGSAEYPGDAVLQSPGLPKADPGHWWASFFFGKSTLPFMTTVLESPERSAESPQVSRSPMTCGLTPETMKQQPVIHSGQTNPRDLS
Sequence of Mrps33_IPI:IPI00135214.1 (mouse) (Q9D2R8 2-106 limits assumed): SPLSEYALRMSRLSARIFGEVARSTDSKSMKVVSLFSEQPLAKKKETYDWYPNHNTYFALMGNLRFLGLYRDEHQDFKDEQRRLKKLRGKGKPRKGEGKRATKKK
Sequence of Iscu_IPI:IPI00110578.1 (mouse) (Q9D7P6 36-168 limits assumed): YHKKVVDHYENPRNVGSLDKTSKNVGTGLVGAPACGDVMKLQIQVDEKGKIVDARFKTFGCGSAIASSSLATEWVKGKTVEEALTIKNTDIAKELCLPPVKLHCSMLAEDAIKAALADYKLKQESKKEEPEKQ
Sequence of Sccpdh_IPI:IPI00153266.1 (mouse) (Q8R127 2-429 limits assumed): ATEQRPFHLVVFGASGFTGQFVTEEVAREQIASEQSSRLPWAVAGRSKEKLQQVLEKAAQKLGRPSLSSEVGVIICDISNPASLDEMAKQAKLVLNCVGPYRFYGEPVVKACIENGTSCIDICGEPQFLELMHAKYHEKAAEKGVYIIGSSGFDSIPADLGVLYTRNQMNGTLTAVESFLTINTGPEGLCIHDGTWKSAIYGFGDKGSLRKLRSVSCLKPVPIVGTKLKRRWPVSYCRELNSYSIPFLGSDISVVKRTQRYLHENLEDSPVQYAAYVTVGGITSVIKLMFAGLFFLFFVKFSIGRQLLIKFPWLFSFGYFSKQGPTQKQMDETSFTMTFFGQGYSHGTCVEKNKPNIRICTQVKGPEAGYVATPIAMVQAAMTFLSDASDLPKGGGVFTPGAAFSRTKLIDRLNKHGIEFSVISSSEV
Sequence of Gnao1_IPI:IPI00115546.4 (mouse) (P18872 2-354 limits assumed): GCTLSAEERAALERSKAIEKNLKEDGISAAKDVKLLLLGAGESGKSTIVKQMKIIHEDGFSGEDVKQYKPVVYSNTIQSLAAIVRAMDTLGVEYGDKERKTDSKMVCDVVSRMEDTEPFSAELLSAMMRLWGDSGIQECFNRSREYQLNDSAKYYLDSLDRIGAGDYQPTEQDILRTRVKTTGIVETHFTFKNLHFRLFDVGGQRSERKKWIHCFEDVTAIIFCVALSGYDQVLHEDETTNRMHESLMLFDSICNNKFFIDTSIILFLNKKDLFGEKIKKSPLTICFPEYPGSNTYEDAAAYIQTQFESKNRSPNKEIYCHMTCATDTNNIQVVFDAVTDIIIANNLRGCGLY

## GST-Httex1-97Q (from UniProt P08515 1-218; P42858 1-88)
[1]
  No. of total peptides: 1 peptides
  No. of unique peptides: 1 peptides
[2]
  No. of total peptides: 1 peptides
  No. of unique peptides: 1 peptides
[3]
  No. of total peptides: 1 peptides
  No. of unique peptides: 1 peptides
[4]
  No. of total peptides: 3 peptides
  No. of unique peptides: 3 peptides
[5]
  No. of total peptides: 2 peptides
  No. of unique peptides: 2 peptides
[6]
  No. of total peptides: 1 peptides
  No. of unique peptides: 1 peptides
[7]
  No. of total peptides: 3 peptides
  No. of unique peptides: 2 peptides
[8]
  No. of total peptides: 1 peptides
  No. of unique peptides: 1 peptides
[9]
  No. of total peptides: 6 peptides
  No. of unique peptides: 4 peptides
[10]
  No. of total peptides: 1 peptides
  No. of unique peptides: 1 peptides
[11]
  No. of total peptides: 1 peptides
  No. of unique peptides: 1 peptides
[12]
  No. of total peptides: 3 peptides
  No. of unique peptides: 3 peptides
[13]
  No. of total peptides: 1 peptides
  No. of unique peptides: 1 peptides
[14]
  No. of total peptides: 4 peptides
  No. of unique peptides: 4 peptides
[15]
  No. of total peptides: 3 peptides
  No. of unique peptides: 3 peptides
[16]
  No. of total peptides: 1 peptides
  No. of unique peptides: 1 peptides
[17]
  No. of total peptides: 1 peptides
  No. of unique peptides: 1 peptides
[18]
  No. of total peptides: 1 peptides
  No. of unique peptides: 1 peptides
[19]
  No. of total peptides: 1 peptides
  No. of unique peptides: 1 peptides
[20]
  No. of total peptides: 1 peptides
  No. of unique peptides: 1 peptides
